Positions count from the first letter of the chain named.
T1: CARD9 FL overexpressed in HEK 293T cells
T1 sequence (Q9H257 1-536, species assumed, looked up): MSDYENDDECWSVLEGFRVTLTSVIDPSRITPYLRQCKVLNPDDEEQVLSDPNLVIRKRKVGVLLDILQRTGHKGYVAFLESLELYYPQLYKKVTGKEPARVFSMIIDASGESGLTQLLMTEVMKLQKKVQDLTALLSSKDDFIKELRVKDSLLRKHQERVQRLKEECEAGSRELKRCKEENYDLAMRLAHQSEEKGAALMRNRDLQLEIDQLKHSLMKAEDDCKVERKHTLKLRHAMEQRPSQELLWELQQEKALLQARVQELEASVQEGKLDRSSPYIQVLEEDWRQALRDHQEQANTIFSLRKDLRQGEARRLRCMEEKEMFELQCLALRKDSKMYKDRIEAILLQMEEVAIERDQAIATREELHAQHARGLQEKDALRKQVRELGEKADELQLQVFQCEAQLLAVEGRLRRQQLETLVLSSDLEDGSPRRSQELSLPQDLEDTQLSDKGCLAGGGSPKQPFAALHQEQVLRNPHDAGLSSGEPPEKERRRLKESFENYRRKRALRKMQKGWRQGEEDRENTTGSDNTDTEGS

T2: CARD9 R101C overexpressed in HEK 293T cells
T2 sequence (Q9H257 1-536 with R101C, species assumed, looked up): T1 sequence (Q9H257 1-536, species assumed, looked up) with R101C

T3: CARD9 S104N overexpressed in HEK 293T cells
T3 sequence (Q9H257 1-536 with S104N, species assumed, looked up): T1 sequence (Q9H257 1-536, species assumed, looked up) with S104N

T4: CARD9 R101C (endogenous knock-in variant, in CARD9 R101C mouse BMDCs) (Mus musculus, UniProt A2AIV8 1-536)
T4 construct: CRISPR knock-in mouse; The protein stood in lysates of HKCA-stimulated BMDCs
T4 sequence: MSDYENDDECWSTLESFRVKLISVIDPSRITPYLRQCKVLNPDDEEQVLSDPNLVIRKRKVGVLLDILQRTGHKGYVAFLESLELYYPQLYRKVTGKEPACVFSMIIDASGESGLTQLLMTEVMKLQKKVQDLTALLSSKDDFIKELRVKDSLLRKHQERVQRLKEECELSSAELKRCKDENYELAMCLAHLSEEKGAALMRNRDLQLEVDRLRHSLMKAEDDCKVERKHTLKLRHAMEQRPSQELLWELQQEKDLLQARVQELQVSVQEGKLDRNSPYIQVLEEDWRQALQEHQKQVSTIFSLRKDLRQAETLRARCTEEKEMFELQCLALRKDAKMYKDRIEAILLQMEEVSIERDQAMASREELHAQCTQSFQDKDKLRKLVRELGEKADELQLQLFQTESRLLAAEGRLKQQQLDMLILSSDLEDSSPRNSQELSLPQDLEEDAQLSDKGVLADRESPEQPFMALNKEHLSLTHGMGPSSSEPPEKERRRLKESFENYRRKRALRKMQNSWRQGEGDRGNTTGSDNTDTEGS

T5: CARD9 (endogenous, in WT mouse BMDCs) (Mus musculus, UniProt A2AIV8 1-536)
T5 construct: Endogenous protein in lysates of HKCA-stimulated WT mouse BMDCs; also called WT CARD9
T5 sequence: T4 sequence with C101R

B1: Bcl10 (endogenous, in mouse BMDCs) (other, UniProt Q9Z0H7 1-233, looked up)
chain: MEAPAPSLTEEDLTEVKKDALENLRVYLCEKIIAERHFDHLRAKKILSREDTEEISCRTSSRKRAGKLLDYLQENPRGLDTLVESIRREKTQSFLIQKITDEVLKLRNIKLEHLKGLKCSSCEPFAAGATNNLSRCNSDESNLSEKQRASTVMYHPEGESSTAPFFSMASSLNLPVLEVGRTENSSFSSATLPRPGDPGAPPLPPDLRLEEGGSCGNSSEMFLPLRSRALSRQ

Columns and labels:
[1] = test system: T1, CARD9 FL overexpressed in HEK 293T cells
[2] = test system: T2, CARD9 R101C overexpressed in HEK 293T cells
[3] = test system: T3, CARD9 S104N overexpressed in HEK 293T cells
[4] = target: T4, CARD9 R101C (endogenous knock-in …); assay: Bcl10 immunoprecipitation from HKCA-stimulated BMDCs, western blot
Experimental: (§1) Lysate was incubated for 30 min and centrifuged at 2000 rpm for 10 min at 4° C. 50 μl of the supernatant was collected as whole cell lysate (WCL) fraction. Remaining supernatant was collected and incubated overnight with 10 al/sample of CARD9 antibody (Cell Signaling Technology #12283S) at 4° C. while rotating. The next day, 50 μl of Dynabeads Protein G beads (Life Technologies #10004D) were added and incubated for 1 h rotating at 4° C. Immunoprecipitates were washed 3× with standard lysis buffer and resuspended in 25 μl of 2× Laemmli buffer (BioRad #1610737) supplemented with 5% R-mercaptoethanol followed by boiling for 10 min at 75° C. For Bcl10 IP to detect CBM complex formation, cell pellets were resuspended in lysis buffer (PBS, 0.5% NP-40) supplemented with 1× Halt Protease & Phosphatase Inhibitor Single-Use Cocktail and Pierce Universal Nuclease and kept on ice for 10 min. Lysate was centrifuged for 10 min at 2000 rpm at 4° C. 50 μl of the supernatant was collected as whole cell lysate (WCL) fraction. Remaining supernatant was incubated overnight with 200 al/sample of Bcl10 antibody (Santa Cruz Biotechnology #sc-5273) at 4° C. rotating. The next day, 50 μl of Dynabeads Protein G beads were added and incubated for 1 h rotating at 4° C. […]

[5] = target: T5, CARD9 (endogenous, in WT mouse BMDCs); assay: Bcl10 immunoprecipitation from HKCA-stimulated BMDCs, western blot for CARD9
Experimental: as §1

Row | Molecule | in vitro phosphorylation assay (western blot) [1] | in vitro phosphorylation assay (western blot) [2] | in vitro phosphorylation assay (western blot) [3] | binding result [4] | binding result [5]
1 | purified PKCδ (Promega PKCδ Kinase Enzyme System #V3401) | PKCd does indeed phosphorylate S104 | this phosphorylation requires an intact RXXS motif in the linker domain | this phosphorylation requires an intact RXXS motif in the linker domain | – | –
2 | B1 | – | – | – | no binding | binds
